In PMC4797271:

Columns and labels:
Experiment in all cases: EMSA
[1] = molecular target: T1, ComA (Bacillus subtilis (W168?)) (UniProt P14204); settings: EMSA: 10 mM HEPES pH 7.6, 2 mM MgCl2, 0.1 mM EDTA, 200 mM KCl, 5 mM DTT, 10% glycerol, 10 ng DNA in 15 ul, 20 min, room temperature
T1 sequence: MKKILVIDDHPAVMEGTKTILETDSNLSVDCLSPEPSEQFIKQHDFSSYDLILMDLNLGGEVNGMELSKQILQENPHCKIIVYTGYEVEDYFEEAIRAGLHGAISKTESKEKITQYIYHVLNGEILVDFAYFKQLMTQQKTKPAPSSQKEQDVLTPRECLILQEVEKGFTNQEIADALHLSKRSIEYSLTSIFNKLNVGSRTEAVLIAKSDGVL

[2] = molecular target: T2, ComA;RNA polymerase alpha subunit (Bacillus subtilis (W168?);Bacillus subtilis) (UniProt P14204+P20429); settings: EMSA: 10 mM HEPES pH 7.6, 2 mM MgCl2, 0.1 mM EDTA, 200 mM KCl, 5 mM DTT, 10% glycerol; 10 ng DNA in 15 ul, 20 min, room temperature
T2 sequence 1: T1 sequence
T2 sequence 2: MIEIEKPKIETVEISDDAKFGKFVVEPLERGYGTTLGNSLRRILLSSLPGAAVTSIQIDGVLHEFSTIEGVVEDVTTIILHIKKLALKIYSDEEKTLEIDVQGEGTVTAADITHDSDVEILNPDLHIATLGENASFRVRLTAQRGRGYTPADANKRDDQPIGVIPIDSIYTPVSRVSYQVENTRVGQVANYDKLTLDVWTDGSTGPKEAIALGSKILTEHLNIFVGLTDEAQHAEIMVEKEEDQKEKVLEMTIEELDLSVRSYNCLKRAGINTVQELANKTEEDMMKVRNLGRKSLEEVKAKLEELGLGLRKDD

[3] = molecular target: ComA;sigma factor sigmaA (Bacillus subtilis (W168?);Bacillus subtilis) (UniProt P14204+P06224); settings: EMSA: 10 mM HEPES pH 7.6, 2 mM MgCl2, 0.1 mM EDTA, 200 mM KCl, 5 mM DTT, 10% glycerol; 10 ng DNA in 15 ul, 20 min, room temperature
ComA;sigma factor sigmaA (Bacillus subtilis (W168?);Bacillus subtilis), sequence (P06224 whole entry, one chain of several): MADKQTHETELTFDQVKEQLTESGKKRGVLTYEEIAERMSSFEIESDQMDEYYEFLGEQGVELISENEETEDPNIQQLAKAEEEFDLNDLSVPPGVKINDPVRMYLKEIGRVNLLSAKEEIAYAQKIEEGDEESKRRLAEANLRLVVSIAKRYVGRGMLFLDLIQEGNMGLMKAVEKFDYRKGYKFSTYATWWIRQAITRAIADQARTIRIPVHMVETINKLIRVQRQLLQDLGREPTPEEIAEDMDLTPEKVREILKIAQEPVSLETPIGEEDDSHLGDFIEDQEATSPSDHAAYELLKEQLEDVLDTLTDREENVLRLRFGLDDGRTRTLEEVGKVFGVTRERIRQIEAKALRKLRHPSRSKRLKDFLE

“AAAACCAAAAGGCCAATGTCGGCCTTTTGGTTTTTTTGCGGTCTTTGCGGTGGGATTTTGCAGAATGCCGCAATAGGATAGCGGAACATTTTCGGTTCTGAATGTCCCTCAATTTGCTATTATATTTTTGTG (double strand) [Ppel]” was tested, and the binding [1] was “binds”.

With “GTTACTGTCAAGTCGCAAAAGAATTGCTATGACCGAAAAAAAACCGCAAAGGAATAGATATAAGGTACCTTTTTGCAATTCATCTTTGTAAAATAAAGGTTATTCTGACATAATACAATTAATGTAAAAATTCGCACAATTTTATGTAAGGATGGGGGAATTTTC (double strand) [PrapI]” the binding [1] was “binds”.

NCrapI (no DR) was tested, and the binding [1] was over 9.6 µM.

For NCyddk (no DR), the binding [1] was over 9.6 µM.

Substance PDR ex1 (RE3 T1C) has a binding signal (fold reduced affinity) [1] of 2.

Work on PDR ex3 (RE3 G3A) yielded a binding [1] of over 9.6 µM.

PDR ex5 (RE3 G5A) showed a binding [1] of over 9.6 µM.

In the case of PDR ex11 (RE4 G5A), the binding [1] is reported as over 9.6 µM.

With PDR ex12 (RE4 G6A) the binding [1] was over 9.6 µM.

PIR-PDR core module fragment showed a Kd ([1]; apparent Kd, Hill coefficient 1.4) of 2400 nM.

With “TAGATTTCCTCCGACCTAATTTAATCCATTGTTTGTAAACATTTCATATCTAATTATATAACATAGACTCCTATTCTAACTACTTATTTTAAAGCAGTCTGGATTGTTTGGGTAATTCATAAAAAAATAAAAGAAAGAAGGAGGAATAGAGTTTTTCTTTTTTTTGTTTGCAATGTTACTGTCAAGTCGCAAAAGAATTGCTATGACCGAAAAAAAACCGCAAAGGAATAGATATAAGGTACCTTTTTGC (double strand) [Pyddk]” the binding [1] was “binds”.

For “TTAATCCCCCCTTTTGAATTACCCGAGATATGTCATATTTTATCATATTTACAAGAAAAAGAAGAACGCAAAATAACCGCAATTGTCGAATTTCGGCTAACCGCAACAAAAAAGCACG (double strand) [PrapA]”, the binding [1] was “binds”, the binding [2] was “binds” and the binding [3] was “binds”.
